± gives the uncertainty stated by the source.

This note sets out measurements from the supplement of paper PMC12042874.

This series can be described thus: amyloid nucleation score (Sup35N fusion, yeast selection) (log enrichment); library NNK1; higher = more nucleation; inactive = no reads after selection. In outline:
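Nucleation score: DiMSum log enrichment of output over input reads, centred on the mode score of non-aggregating sequences. Only sequences with at least 100 input reads were kept. Reads came from Illumina sequencing of plasmid inserts before and after 7 days of growth at 30°C without adenine and uracil, in psi-negative yeast expressing Sup35N fused to peptides of 20 random codons after 24 hours of induction with 100 μM copper sulfate.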

In turn, CWFANRSLPVQIPRVW came in with an amyloid nucleation score of -0.394 ± 0.48.
As for SGWNEFTRGTTRVHWRNQYS, the figure is -1.48 ± 2.4; as for FPWTNLSDD, 0.04 ± 0.36.
As for FMYWSIHDTIVLTWHDGSSL, the figure is -0.036 ± 0.65; as for ILPEPGMLFDIILNLHAKKF, 2.65 ± 0.11; as for YLGRVSFIGHFVVTVSGSSQ, 1.1 ± 0.21.
As for LWLAFIIES, the figure is 0.338 ± 0.25.
As to HSLAGLGIIGRCAKLVQAQS, the amyloid nucleation score was found to be 0.48 ± 0.25.
As for FSSFESCCRRYSSM, the figure is 0.576 ± 0.93.
The substance DPTTLYIEV showed an amyloid nucleation score of 1.29 ± 0.39.
As for MRFKRRSGFGELGMFAFTPL, the figure is -0.628 ± 0.5; as for LSRVKSR, 1.29 ± 0.62; as for TYYTVTEISHVGWTYFGYVR, -0.151 ± 0.64.
The substance ARAVFLGEVGSAFFCRQSVW came in with an amyloid nucleation score of 0.273 ± 0.74.
As for EERRMSWWFERGCKLAVELS, the figure is -0.614 ± 0.8; as for MSDCPACGCSCHRSKLISGF, -0.414 ± 0.5.
As for QPILPSPIRWFEESMDLVWG, the figure is -0.542 ± 0.4.
As for SEGSLLYTMWGTLVDWSSCV, the figure is -1.08 ± 1.4.
As to VYVDSCCHMF, the amyloid nucleation score was 7.508 ± 0.069.
As for VTNTSLFSIAKSLGHHHEGR, the figure is 0.272 ± 0.4.
As for DEVIF, the figure is 0.421 ± 0.52; as for VVAGNSAKEIYKFTGADTPY, -0.751 ± 0.57.
As for VGSTKSDVTDFLDCMNGLEW, the figure is 0.462 ± 0.63.
MVMFHSSFLIDDTWICWNPF registered an amyloid nucleation score of 0.255 ± 0.47.
As for VFCVRYLRANISCEGHDGWY, the figure is 2.28 ± 0.14; as for HHKTFV, “inactive”; as for ERFCQGSCCNNFMGVFIRES, 5.68 ± 0.077.
As for HVTNSWNSKGLRTSSGDTNV, the figure is 0.305 ± 0.4; as for EGATWIFQYLAGGVG, -0.534 ± 0.34.
As for PVDNYFIMTTHDKLNRPGHD, the figure is -1.85 ± 1; as for CGGTNILWVRSLPHGLDVHD, -0.204 ± 0.39.
As for PLFLQCLWKNSLDLGMKDLS, the amyloid nucleation score was -0.327 ± 1.4.
As for QIWPKAWPLFWPRNRKYANR, the figure is -0.077 ± 0.26.
As for VVVVKLQVQCDGESMSACLG, the figure is -0.495 ± 1.5; as for TARYTGGNTNIRSGKFLVWI, 0.075 ± 0.35; as for YWVILFPITIWSVKTSVGNH, 1.7 ± 0.31.
As for YGFLVKS, the figure is 0.1 ± 0.9.
In the case of SFVSYYLLS, the amyloid nucleation score is -1.09 ± 1.9.
Take DFASVEFWLIALPSQMCWFF: the amyloid nucleation score worked out at 0.056 ± 0.76.
As for LWGLVRSFFDIDNLKGFRTE, the figure is -0.257 ± 1.9.
With TDLAHLSVSMFDNFSRELVL, the amyloid nucleation score was -0.323 ± 1.6.
As for PCRGL, the figure is -0.628 ± 2.1; as for CFVPY, -0.109 ± 0.53; as for RLYFRELSWSGLCMFELVRI, -0.117 ± 0.4.
Substance GYFCGMDLCTKEGLTHYEY had an amyloid nucleation score of -0.736 ± 0.72.
As for ILSRCVC, the figure is 0.608 ± 0.37; as for TGSMVFLMVVAGSCLFGLSE, 0.652 ± 0.24.
Take YFQTRSAKRVCSNQIHVLRW: the amyloid nucleation score was determined as 3.08 ± 0.12.
As for ATRFTR, the figure is 0.282 ± 0.5; as for GTTLTDSVCYRGLNFPRLY, -0.435 ± 1.9.
As for TARFLTKFAPGQSMNAYRCG, the figure is -0.033 ± 0.6; as for SGHACTGR, 0.616 ± 0.4.
As for HVRHNVYISVCEVARDKRRG, the figure is 5.12 ± 0.08; as for SFNHYMFLYFVISGWSSPQA, 1.1 ± 0.55.
Regarding KMAYRVVNNLGCSIMCNICT, the amyloid nucleation score came to 7.616 ± 0.046.
KYYYWRRVPVCQKGDLF gave an amyloid nucleation score of 0.095 ± 0.31.
As for AAPLNMCLANTGFAQFLTSI, the figure is -0.618 ± 1.2.
As for IYCGNSEF, the figure is -0.048 ± 0.79.
As for LKSTEWSGRGFQ, the figure is 0.862 ± 0.19.
On to MLKQMSSLGREEIYVF, for which the amyloid nucleation score is -0.314 ± 0.99.
As for RLCAQ, the figure is 0.592 ± 0.81.
As for RVYENNIY, the figure is -1.05 ± 1.7.
As for NMGSFELWYYGLKASVGFAN, the figure is 0.513 ± 0.4; as for FSVGYDNGMDNM, 0.426 ± 0.29; as for RPDALGN, -0.97 ± 0.64.
Consider LAWSEYLMCLTRCHPIAV, for which the amyloid nucleation score amounted to 0.414 ± 0.54.
As for QFWHYGF, the figure is -1.04 ± 2.4; as for TPSLLVAVRILAAVMPSWET, -0.746 ± 0.43; as for LRYSIISLAANSKTADG, 0.663 ± 0.7.
As for WVSFCNFDGKKFGAVRAHYY, the figure is -2 ± 0.97.
CFMCTGAGCILNEMPRNLLG yielded an amyloid nucleation score of 7.793 ± 0.071.
As for ALWCMRSTSRLGKCFGLVIY, the figure is -0.945 ± 0.77; as for ICSVRSTQVGEKTSLPWLCR, 0.371 ± 0.41.
As for GELLKMNVQIRYMGIWVNIL, the figure is 3.46 ± 0.18.
As for DPVSIMTGRQDPRGCGVTCF, the figure is -1.96 ± 2.7; as for FDPCYTHALWLFGDVKARCM, -0.083 ± 0.37; as for PMLFGVGRSFE, -0.377 ± 0.27.
For RGSQTLGCVSGLHHHRFAIL, the amyloid nucleation score is -1.14 ± 0.63.
WEGGGMGNYVQRHACARHKV registered an amyloid nucleation score of 0.125 ± 0.3.
As for LSQFD, the figure is 1.17 ± 0.41; as for VISRSVDYTPM, -0.599 ± 0.46.
As for SNYSQLLVMEVLHLGYTIRR, the figure is -1.19 ± 0.91.
As for FHDLTQSCVCGSM, the figure is 0.717 ± 0.49; as for SWWEFECETS, “inactive”.
Consider AWHTRPQTKTERPLRPVFRA, for which the amyloid nucleation score was -0.733 ± 0.69.
As for LLYYASVLRMKGTECPDGGD, the figure is -0.856 ± 2.4; as for ILSGVFLIRIEAKSNK, -0.179 ± 1.2.
As for SEWAMRITLATASSQTGGSE, the figure is 0.235 ± 0.32; as for IVWESLFNKFAITVGMLGFM, 1.63 ± 0.43; as for YVRDGVPSWMQCYLRGSFGG, 0.208 ± 0.72.
TKIVFIVL: the amyloid nucleation score is 6.02 ± 0.084.
As for SRLWSSCHCHLAAYSVIHDD, the entry is “inactive”; as for SACFYTATVFFMYNSFGSNV, 5.611 ± 0.055; as for APSAVS, 0.876 ± 0.53.
KVSPIMDEN: the amyloid nucleation score turned out to be 0.547 ± 0.37.
As for VMTFLISLSWYSL, the figure is 0.328 ± 0.23; as for WLLTNPPLIVFTVRRNSRFS, -1.09 ± 1.9.
As for ECVTCSWF, the figure is 0.011 ± 0.38; as for YYLSVNR, -0.116 ± 0.67.
On to RCDNLF, for which the amyloid nucleation score is 0.037 ± 0.39.
As for ILIDYRGSEPG, the figure is 0.224 ± 1.4; as for NNTFVIVKFEAKDTFVEGVR, 1.57 ± 0.3.
The substance MGIHIFSGRSCTIFLLPSLY yielded an amyloid nucleation score of -0.582 ± 1.2.
RFNLCNGFMGIAKNCICIWT yielded an amyloid nucleation score of 1.41 ± 0.45.
As for TRMRSSKSSVA, the amyloid nucleation score came out at 0.532 ± 0.42.
In turn, NEFEVCG yielded an amyloid nucleation score of 0.108 ± 0.25.
As for INMYWY, the figure is -0.031 ± 0.31; as for CNQMSFFTEALVNKLHLFFT, “inactive”.
As for CIMLRMFVYESYSVCVVVA, the entry is “inactive”.
As for FDRWFRQGNGLVV, the figure is 0.225 ± 0.78; as for YSMIPKITSKP, 0.028 ± 0.29.
In turn, NLKIQCSS displayed an amyloid nucleation score of 0.004 ± 0.39.
As for YSYVVCYNFYKRV, the figure is 3.86 ± 0.14.
As for PLWAPNSSNFAINRNQWRFN, the figure is 0.11 ± 0.57; as for CARYNASDRGEASYLIEHCG, -0.224 ± 0.57; as for SRGSVCIAMHLAC, 0.001 ± 0.37.
As for CEWAAGRTWMKLGSSSTKTK, the figure is 3.87 ± 0.12; as for MMLSVCISKLTFLVIRDLLV, 0.459 ± 0.23.
GVHSTEKNEWTQTFQSGR returned an amyloid nucleation score of -0.103 ± 0.98.
As for EFTRRAYYDRNAQLFHMDQC, the figure is 2.19 ± 0.18; as for IEWFVLGDYMCTAQSVCGLV, -1.26 ± 1.3.
As for SYVIGNTGGSIKSEARGWDI, the figure is 0.071 ± 0.35.
Take SIYRSVIIVMDTKVMRDVLF: the amyloid nucleation score came out at 4.97 ± 0.067.
As for DPVYGLYGALFAMNPFMDYL, the figure is -0.427 ± 0.56; as for LRNHASVPV, 0.084 ± 0.4.
As for SITWNPPVPVRTNVVDRNLG, the figure is 0.48 ± 0.52.
As for CFIGANPLRNQWMRSTRIVP, the figure is 0.28 ± 0.61.
As to YNGLGIEETNWAARGS, the amyloid nucleation score is -1.12 ± 1.1.
The substance SLQTTWLKNLGDLSSSREAS yielded an amyloid nucleation score of -0.121 ± 0.73.
As for RWVTSLRPNLDLS, the figure is 0.869 ± 0.52.
As for VCVSIGWFCCSGCCLAQRLW, the figure is 7.2 ± 0.065.
As for CVTLTCLLSSIV, the figure is 1.84 ± 0.12.
Turning to RWVVSVPISCARACFSG, the amyloid nucleation score turned out to be 0.579 ± 0.73.
As for PVRVYIGGEDACMKSTKHMY, the figure is 5.65 ± 0.085.
As for TGYFNTRVWLDRLDYVLETN, the figure is -0.44 ± 0.29.
As for QDRHYRNAKGSNSCYIRRKS, the figure is 1 ± 0.35; as for CQYVCRDNFDYQTSSSCGCD, “inactive”; as for GGTSIPVVGNQGMIGYVPCD, 0.825 ± 0.43.
For the substance TLNQHY, the amyloid nucleation score came out at 0.025 ± 0.55.
As for YSSERTLLALVGT, the figure is -0.21 ± 0.51.
KNRRSCIMNIGRYWRVQMVI had an amyloid nucleation score of -0.846 ± 0.68.
Take MLFGC: the amyloid nucleation score was -0.003 ± 0.41.
